Source: patent US20220041723A1 (BIOINVENT INTERNATIONAL, published 2022)
Where a chain is given by its changes, count along the chain named.

B1: 2-F09 (antibody, V domains shown)
VH: EVQLLESGGGLVQPGGSLRLSCAASGFTFKAYSMSWIRQAPGKGLEWVSGISNTGGSTDFADSVKGRFTISRDNSKNTLYLQMNSLRAEDTAMYYCARLGYSGYDDRGMDVWGQGTLVTVSS
VL: QSVLTQPPSASGTPGQRVTISCSGSSSNIGSNYVYWYQQLPGTAPKLLIYGNSNRPSGVPDRFSGSKSGTSASLAISGLRSEDEADYYCQSYDSSLSGPVVFGGGTKLTVLG
B2: 5-B07 (antibody, V domains shown)
VH: EVQLLESGGGLVQPGGSLRLSCAASGFTFSSYSMNWVRQAPGKGLEWVSAISGSGGSTYYADSVKGRFTISRDNSKNTLYLQMNSLRAEDTAVYYCARDRVEMNQWLADWGQGTLVTVSS
VL: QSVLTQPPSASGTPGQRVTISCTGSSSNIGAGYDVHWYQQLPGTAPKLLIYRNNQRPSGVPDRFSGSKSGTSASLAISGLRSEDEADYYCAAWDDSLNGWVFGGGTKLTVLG
notes: also called 5-B07 (human IgG format)
B3: m5-B07 (antibody clone 5-B07 in mIgG2a format) (antibody, V domains shown)
VH: B2 VH
VL: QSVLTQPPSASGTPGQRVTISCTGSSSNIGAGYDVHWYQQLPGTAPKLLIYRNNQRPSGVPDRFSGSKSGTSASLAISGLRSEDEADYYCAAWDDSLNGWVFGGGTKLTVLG
notes: also called 5-B07 in mouse IgG2a format; m5-B07 mAb
B4: 2-C06 (antibody, V domains shown)
VH: EVQLLESGGGLVQPGGSLRLSCAASGFTFSSYAMSWVRQAPGKGLEWVSGISGSGGYIHYADSVKGRFTISRDNSKNTLYLQMNSLRAEDTAVYYCATYSSGLHDAFDIWGQGTLVTVSS
VL: QSVLTQPPSASGTPGQRVTISCTGSSSNIGAGYDVHWYQQLPGTAPKLLIYDNNKRPSGVPDRFSGSKSGTSASLAISGLRSEDEADYYCAAWDDSLNGWVFGGGTKLTVLG
notes: also called 2-006
B5: 4-E03 (antibody, human IgG1, lambda, V domains shown)
VH: EVQLLESGGGLVQPGGSLRLSCAASGFTFSDYYMSWVRQAPGKGLEWVSGISWSSRDKGYADSVKGRFTISRDNSKNTLYLQMNSLRAEDTAVYYCTTDLARYWGQGTLVTVSS
VL: B4 VL with D52G, N54D, K55N, A92V, W100V
notes: also called 4-E03 mAb; 4-E03 monoclonal antibody

Experiments:
[1] = molecular target: T1, human CTLA-4 expressed on cells (293T cells stably transfected with human CTLA-4); in vitro-activated human … (human, UniProt P16410 36-223); experiment: flow cytometry on hCTLA-4-transfected 293T cells
T1 construct: whole, on cells; also called hCTLA-4

[2] = molecular target: T2, recombinant human CTLA-4-Fc protein (R&D Systems) (human, UniProt P16410 37-162); experiment: ELISA, CTLA-4-Fc coated at 1 pmol/well, IgG titrated
T2 construct: also called rhCTLA-4-Fc; human CTLA-4 protein; not shown: Fc part of the bought fusion protein, not described

[3] = molecular target: T3, recombinant mouse CD28-Fc protein (R&D Systems) (mouse, UniProt P31041 20-149); experiment: ELISA, mouse CD28-Fc coated at 0.3 pmol/well
T3 construct: not shown: Fc part of the bought fusion protein, not described

[4] = molecular target: T2, recombinant human CTLA-4-Fc protein …; experiment: competitive flow cytometry: soluble rhCTLA-4-Fc blocks staining of activated human CD4+ T cells
[5] = molecular target: T4, recombinant human CD28-Fc protein (R&D Systems) (human, UniProt P10747 19-152); experiment: ELISA, CD28-Fc coated at 1 pmol/well
T4 construct: also called human CD28 protein; not shown: Fc part of the bought fusion protein, not described

[6] = molecular target: T5, recombinant mouse CTLA-4-Fc protein (R&D Systems) (mouse, UniProt P09793 36-162); experiment: ELISA, mouse CTLA-4-Fc coated at 0.3 pmol/well, IgG titrated
T5 construct: not shown: Fc part of the bought fusion protein, not described

[7] = molecular target: T6, recombinant mouse CTLA-4-Fc protein (Sino Biological Inc.) (mouse, UniProt P09793 36-162); experiment: ligand blocking ELISA on coated mouse CTLA-4-Fc
T6 construct: also called murine CTLA-4; not shown: Fc part of the bought fusion protein, not described

[8] = molecular target: T2, recombinant human CTLA-4-Fc protein …; experiment: ELISA, CTLA-4-Fc coated, IgG titrated

Row | Binder | binding result [1] | binding result [2] | binding result [3] | binding result [4] | binding result [5] | binding result [6] | binding result [7] | binding result [8]
1 | B1 | binds | binds | – | – | – | – | – | –
2 | B2 | binds | – | no binding (tested: titrated 66 nM to 0.3 pM) | binds | no binding (tested: titrated 66 nM to 0.3 pM) | binds | – | –
3 | B3 | – | – | – | – | – | – | binds | –
4 | B4 | binds | – | – | – | no binding (tested: titrated 66 nM to 0.3 pM) | – | – | binds
5 | B5 | binds | – | – | – | no binding (tested: titrated 66 nM to 0.3 pM) | – | – | binds
